Data reported in patent publication US20230364234A1.

Tests used:
[1] = biological target: CD4-10-17b CAR with an inserted myc epitope, expressed on cells transduced with the SFFV/CAR-T-myc/GFP lentivirus (human) (UniProt P01730); test: flow cytometry, primary human T cells transduced with SFFV/CAR-T-myc/GFP, gated CD8+GFP+
[2] = biological target: CD4-10-17b CAR with an inserted myc epitope, expressed on cells transduced with the SFFV/CAR-T-myc/GFP lentivirus (human) (UniProt P01730); test: cell-based or functional assay
[3] = biological target: CD4-10-17b CAR with an inserted myc epitope, expressed on cells transduced with the SFFV/CAR-T-myc/GFP lentivirus (human) (UniProt P01730); test: flow cytometry, primary human T cells transduced with SFFV/CAR-T-myc/GFP, gated CD4+GFP+

Substance: 9E10 anti-myc epitope antibody
- percent of transduced CD8+ T cells bound [1]: 25%
- IFN-γ production by CD4+ GFP+ T cells (flow cytometry, overnight stimulation) [2]: 3 fold
- percent of transduced CD4+ T cells bound [3]: 35%
